Assay results as given in patent CN111499746A (YUROGEN BIOSYSTEMS LLC, dated 2020).

B1: 抗人IL-2蛋白兔单克隆抗体B (antibody, V domains shown)
VH: QSLEESGGRLVTPGGSLTLTCTVSGIDLSTGGVSWVRQAPGKGLEWIGIISRHTNTYYASWAKGRFTISKTSSTTVDVKITSPTIEDTATYYCARVSSGDGLYAFDPWGPGTLVTVSS
VL: AIEMTQTPSPVSAAVGGTVTINCQASEDIETYLAWYQQKPGQPPRLLIYSGSTIASGVSSHFKGSGSGTEFTLTISDLECADAATYYCQCTSYASGYWNQAFGGGTEVVVRG
notes: Recombinant rabbit monoclonal antibody made in 293 cells and purified on protein A; in the Biacore assay it is unlabelled; also called 人IL-2兔单克隆抗体B
B2: 抗人IL-2蛋白兔单克隆抗体A (antibody, V domains shown)
VH: QSVAESGGRLVTPGTPLTLTCTASGFSLTTYAMSWVRQAPGKGLEWIAIIYIDGTTYYGSWAKGRFTISKTSTTVDLRIISPTTEDTATYFCAKWYVGEMDLWGPGTLVTVSS
VL: DIVMTQTPASVEAAVGGTVTINCQASQSVYRDNYLAWYQQKPGQRPKLLIYGTSTLASGVSSRFKGSGSGTQFTLTISDLECADAATYYCQSYVYSSTIDNAFGGGTEVVVKG
notes: Recombinant rabbit monoclonal antibody made in 293 cells and purified on protein A; also called 人IL-2兔单克隆抗体A

Target: T1, 重组人IL-2蛋白 (human, UniProt P60568 21-153)
T1 construct: also called 人白介素-2; 重组表达人IL-2
T1 sequence (P60568 21-153 limits assumed): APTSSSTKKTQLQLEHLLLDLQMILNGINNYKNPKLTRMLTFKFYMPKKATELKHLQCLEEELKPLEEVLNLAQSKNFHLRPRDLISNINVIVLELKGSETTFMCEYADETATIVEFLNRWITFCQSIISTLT
Test: SPR, Biacore 3000; antibody at 333 nM, recombinant human IL-2 at 64, 32, 16, 8, 4 nM

Row | Binder | Kd [nM]
1 | B1 | 0.293
2 | B2 | 0.899
